Laboratory results reported in paper PMC3669277, “Interactions between the R2R3-MYB Transcription Factor, AtMYB61, and Target DNA Binding Sites”.
Numbering of substitutions follows the chain as printed. In names and notes the source's numbering stands.

B1: ACCTAC (AC-I) (dsDNA)
DNA 1: ACATTGGGCGAGAAAAGCTGATCCCCACCTACCCGGGCTATCTCCCCCTCCTCCTCCGATCTG
DNA 2: CAGATCGGAGGAGGAGGGGGAGATAGCCCGGGTAGGTGGGGATCAGCTTTTCTCGCCCAATGT
B2: ACCTAG (AC-I mutant, C6G) (dsDNA)
DNA 1: B1 DNA 1 with C32G
DNA 2: B1 DNA 2 with G32C
B3: ACCAAA (dsDNA)
DNA 1: B1 DNA 1 with T30A, C32A
DNA 2: B1 DNA 2 with G32T, A34T
B4: ACCACA (dsDNA)
DNA 1: B1 DNA 1 with T30A, A31C, C32A
DNA 2: B1 DNA 2 with G32T, T33G, A34T
B5: ACCAAT (dsDNA)
DNA 1: B1 DNA 1 with T30A, C32T
DNA 2: B1 DNA 2 with G32A, A34T
B6: ACCTGC (AC-I mutant, A5G) (dsDNA)
DNA 1: B1 DNA 1 with A31G
DNA 2: B1 DNA 2 with T33C
B7: ACCACC (dsDNA)
DNA 1: B1 DNA 1 with T30A, A31C
DNA 2: B1 DNA 2 with T33G, A34T
B8: ACCGAC (AC-I mutant, T4G) (dsDNA)
DNA 1: B1 DNA 1 with T30G
DNA 2: B1 DNA 2 with A34C
B9: ACCAAC (dsDNA)
DNA 1: B1 DNA 1 with T30A
DNA 2: B1 DNA 2 with A34T
B10: ACCATA (dsDNA)
DNA 1: B1 DNA 1 with T30A, A31T, C32A
DNA 2: B1 DNA 2 with G32T, T33A, A34T
B11: NBS (non-binding site, GAGACC) (dsDNA)
DNA 1: B1 DNA 1 with A27G, C28A, C29G, T30A, A31C
DNA 2: B1 DNA 2 with T33G, A34T, G35C, G36T, T37C

Target: T1, AtMYB61 (Arabidopsis thaliana, UniProt Q8VZQ2 1-366)
Experiment: filter binding; Buffer, salt, pH and temperature not stated (filter binding per Hall and Kranz; EMSA per earlier work); filter binding with 1065 nM probe (124.41 ng, 60 bp) in
Details: protein: recombinant; tags: pET15b (NdeI/BamHI) fusion

T1 sequence (Q8VZQ2 whole entry): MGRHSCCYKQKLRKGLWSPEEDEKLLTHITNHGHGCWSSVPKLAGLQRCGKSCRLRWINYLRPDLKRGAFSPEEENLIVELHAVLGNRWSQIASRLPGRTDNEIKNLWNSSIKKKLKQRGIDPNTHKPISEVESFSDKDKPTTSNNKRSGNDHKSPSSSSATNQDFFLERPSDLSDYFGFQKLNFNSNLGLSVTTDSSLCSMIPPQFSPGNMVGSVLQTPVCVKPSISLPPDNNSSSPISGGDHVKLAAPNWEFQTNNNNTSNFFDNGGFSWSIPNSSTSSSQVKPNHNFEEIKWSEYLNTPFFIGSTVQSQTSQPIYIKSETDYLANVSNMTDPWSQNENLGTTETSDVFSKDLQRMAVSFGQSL

Binder | Kd [nM]
B1 | 9.12
B2 | 56
B3 | 16.8
B4 | 80.8
B5 | 12.1
B6 | 79.7
B7 | 690
B8 | 719
B9 | 73.7
B10 | 18.3

Target: T1, AtMYB61
Experiment: EMSA; 5E-08 M protein; Buffer, salt, pH and temperature not stated (filter binding per Hall and Kranz; EMSA per earlier work); filter binding with 1065 nM probe (124.41 ng, 60 bp) in
Details: protein: recombinant; tags: pET15b (NdeI/BamHI) fusion

Binder | binding result
B11 | no binding
